Values quoted from earlier work, collected in PMC8567204.
Where two headings read alike, the source gives them in different places.

How the values were obtained:
Fyn (unfolded) SH3 = Fyn (unfolded) SH3 (UniProt P06241)
Fyn (native) SH3 = Fyn (native) SH3 (UniProt P06241)
HscA (Escherichia coli) [1] = biological target: HscA (Escherichia coli) (UniProt P0A6Z1)
HscA (Escherichia coli) [2] = biological target: HscA (Escherichia coli) (UniProt P0A6Z1); remark: listed apart in the source
HscB (Escherichia coli) = HscB (Escherichia coli) (UniProt P0A6L9)
[3] = biological target: Trigger factor (Escherichia coli) (UniProt P0A850)

apo-IscU, sequence (P0ACD4 whole entry): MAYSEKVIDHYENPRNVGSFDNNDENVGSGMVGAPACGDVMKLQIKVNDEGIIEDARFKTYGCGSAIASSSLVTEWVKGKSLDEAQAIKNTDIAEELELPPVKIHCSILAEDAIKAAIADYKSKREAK
HscA (Escherichia coli), sequence (P0A6Z1 whole entry): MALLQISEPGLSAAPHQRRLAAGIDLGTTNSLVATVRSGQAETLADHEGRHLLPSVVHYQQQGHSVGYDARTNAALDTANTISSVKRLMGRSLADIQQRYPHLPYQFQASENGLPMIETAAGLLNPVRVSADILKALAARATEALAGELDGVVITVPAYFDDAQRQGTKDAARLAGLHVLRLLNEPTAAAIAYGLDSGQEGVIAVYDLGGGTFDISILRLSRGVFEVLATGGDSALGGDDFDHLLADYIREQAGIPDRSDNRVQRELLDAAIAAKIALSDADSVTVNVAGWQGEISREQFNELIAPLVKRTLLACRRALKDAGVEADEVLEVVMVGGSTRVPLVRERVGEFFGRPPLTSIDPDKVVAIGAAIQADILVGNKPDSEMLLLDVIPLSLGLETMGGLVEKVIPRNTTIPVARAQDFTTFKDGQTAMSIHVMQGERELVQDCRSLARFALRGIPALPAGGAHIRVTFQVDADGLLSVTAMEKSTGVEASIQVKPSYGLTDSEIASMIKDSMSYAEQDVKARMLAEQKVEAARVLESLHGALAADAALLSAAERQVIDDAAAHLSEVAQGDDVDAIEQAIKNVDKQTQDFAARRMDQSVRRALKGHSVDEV
Spy, sequence (P77754 24-161): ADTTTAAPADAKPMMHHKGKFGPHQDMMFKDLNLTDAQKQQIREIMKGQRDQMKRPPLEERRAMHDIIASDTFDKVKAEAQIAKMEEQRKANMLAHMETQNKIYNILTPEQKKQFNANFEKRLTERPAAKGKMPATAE
Trigger factor, sequence (P0A850 whole entry): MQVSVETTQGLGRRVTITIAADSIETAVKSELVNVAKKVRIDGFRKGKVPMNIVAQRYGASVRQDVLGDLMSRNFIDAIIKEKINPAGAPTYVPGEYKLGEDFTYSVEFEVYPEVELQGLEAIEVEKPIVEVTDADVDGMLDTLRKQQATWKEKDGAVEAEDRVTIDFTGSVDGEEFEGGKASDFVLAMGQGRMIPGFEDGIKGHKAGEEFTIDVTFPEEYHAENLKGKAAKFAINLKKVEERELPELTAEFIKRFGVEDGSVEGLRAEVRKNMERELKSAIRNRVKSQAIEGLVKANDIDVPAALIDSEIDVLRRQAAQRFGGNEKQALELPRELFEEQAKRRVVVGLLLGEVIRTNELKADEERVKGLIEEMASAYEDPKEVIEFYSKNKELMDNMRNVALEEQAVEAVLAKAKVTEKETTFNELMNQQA
Fyn (native) SH3, sequence (P06241 82-143): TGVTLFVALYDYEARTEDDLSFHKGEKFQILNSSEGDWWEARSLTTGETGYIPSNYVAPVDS
Fyn (unfolded) SH3, sequence (P06241 82-143): as above
HscB (Escherichia coli), sequence (P0A6L9 whole entry): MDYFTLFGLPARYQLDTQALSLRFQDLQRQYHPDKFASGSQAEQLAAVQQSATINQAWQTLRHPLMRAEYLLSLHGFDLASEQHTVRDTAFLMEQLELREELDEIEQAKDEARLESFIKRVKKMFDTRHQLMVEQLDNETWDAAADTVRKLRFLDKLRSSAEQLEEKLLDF

In the case of Spy (from UniProt P77754), the Kd (Fyn (unfolded) SH3) is listed as 3 µM and the Kd (Fyn (native) SH3) is listed as 50 µM.

In the case of apo-IscU (from UniProt P0ACD4), the Kd (HscA (Escherichia coli) [1]) is given as 9 µM, the Kd (HscA (Escherichia coli) [2]) is given as 37 µM and the Kd (HscB (Escherichia coli)) is given as 11 µM.

For Trigger factor (from UniProt P0A850), the Kd [3] is given as 2 µM.
